Assay [1] addresses DQ6 (DQA1*01:02-DQB1*06:02)-restricted influenza virus HA-specific TCR (DM2). In words: flow cytometry, TCR-transduced primary T cells. (In general: Flow cytometry measures light scatter and fluorescence of single cells or particles in a stream.)
For assay [2], the target named is memory CD4+ T cells from DP4+ donors, unstimulated (a small subset; their TCRs). In words: flow cytometry ex vivo; 73637 evts in the dimer- CD4+ gate.
The target is the same in assay [3]. The assay can be described thus: flow cytometry ex vivo; 49894 evts in the dimer- CD4+ gate.
For assay [4] the target is unchanged. In words: flow cytometry ex vivo; 82428 evts in the dimer- CD4+ gate.
The target is the same in assay [5]. The assay can be described thus: flow cytometry ex vivo; 122436 evts in the dimer- CD4+ gate.
The target is the same in assay [6]. In words: flow cytometry ex vivo; 159441 evts in the dimer- CD4+ gate.
Assay [7] shares this target. The assay can be described thus: flow cytometry ex vivo; 71402 evts in the dimer- CD4+ gate.
Assay [8] shares this target. The assay can be described thus: flow cytometry ex vivo; 50227 evts in the dimer- CD4+ gate.
For assay [9] the target is unchanged. The assay can be described thus: flow cytometry ex vivo; 80783 evts in the dimer- CD4+ gate.
Assay [10] has the same target. The assay can be described thus: flow cytometry ex vivo; 122665 evts in the dimer- CD4+ gate.
Assay [11] has the same target. The assay can be described thus: flow cytometry ex vivo; 160045 evts in the dimer- CD4+ gate.
Assay [12] deals with DR1-restricted TCR HA1.7.

Our source for the % dimer+ CD4+ cells, events in the dimer+ CD4+ gate and percent multimer-positive CD4+ cells (number values is patent US20220291215A1.

In assay [1], “Control (DQ6^L114W/V143M+3reps dimer) (peptide-MHC)” displayed a % dimer+ CD4+ cells of 0.1%.
Regarding “DP4^L112W/V141M dimer loaded with herpes simplex virus type-2-UL21283-302 (HSV-2-UL21283-302) (peptide-MHC)”, the events in the dimer+ CD4+ gate in [2] worked out at 8 evts; in assay [3], 1 evts; in assay [4], 1 evts; in assay [5], 6 evts; in assay [6], 1 evts.
For “DP4^L112W/V141M dimer loaded with respiratory syncytial virus glycoprotein162-175 (RSV-GP162-175) (peptide-MHC)”, the events in the dimer+ CD4+ gate stood at 25 evts in assay [7]; 1 evts in [8]; 4 evts in assay [9]; 10 evts in assay [10]; 37 evts in [11].
As for “DR1 dextramer (PE), Flu-HA306-318 (peptide-MHC)”, the percent multimer-positive CD4+ cells (number at the gate) in assay [12] stood at 30.4%.
